The record followed here is a protein production outcome set (Wang et al. 2014).

A short description of the series: label from the status in PepcDB records.
For the sequence “MDQLNKITPTGTEKVSESSCNKLEETCTKCGKNIYKKVTILGIDRIVKTMCECESKAWHEKRQHEEMLKKQNRLNELITNSLMDEKFRESNFENWDFNKGSRSMYNLGRRYADNFKECKQQGLGLLIYGSAGNGKTYLASAIANELLKQYIPVVCVSINGLLSRIQKTYNSWGKEAESDIIRSFINADLLIIDDLGTEKSSEWSRSMIYNIVDSRYRSKLPLIITSNLEINPSKRHGVLADQYHERTESRIFEMCTPVENTSKSIRIEEAKKKTELLRKILY”, the protein production entry is reported as “failed”.

For the sequence “MGHHHHHHSHMATGEEVPRTIIVTTRSQYGLPEDAIVYCNFNQLYKIDPSTLQMWANILKRVPNSVLWLLRFPAVGEPNIQQYAQNMGLPQNRIIFSPVAPKEEHVRRGQLADVCLDTPLCNG”, the protein production entry was “failed”.

Turning to “MDFSLTEEQELLLASIRELITSNFPEEYFRTCDQTGTYPKEFMQALAENGISMLGVPEEFGGIPADYVTQMLALMEISKCGAPAFLITNGQCIHSMRRFGSAEQLRKTAESTLATGDPAYALALTEPGAGSDNNSATTTWTRKNGKVYLNGQKTFITGAKEYPYMLVLARDTEPKDPKKAFTLWWVDSNKPGIKINPLHKIGWHMLSTCEVYLDNVEVDESDRVGEEGMGFLNVMYNFEMERLINAARSTGFAECAFEDAARYANQRIAFGKPIGHNQMIQEKLALMAIKIENMRNMVLKVAWQADREESLRTSAALAKLYCARTAMEVIDDAIQIMGGLGYTDEARVSRFWRDVRCERIGGGTDEIMIYVAGRQILKDYQNK”, the protein production entry was “failed”.

“MDTFNYQNFYNQEYYLNMVPGIPYDREAHGGHWLRFFNTVADRLINYVSPTSVLDVGCAKGFLLEAFYNRGILVHGFDYSEYAISCVREDLKPFAFVASAANSNAFLEKQDSYDLITCIEVVEHMPRDEAWLAIKNMCQSAKSIFFSSTSDDFAEPTHLTVLPRIYWLETFLSFGFVPDYKFDIHDLIPHGILLRKIDDNLTAFKMLIEVNETNLEVIKQQKIDIEKLNSEKVNLENKLQQTQTELERSHSQLQQTQTELERSHSQLQQTQTELERSHSQLQQTQTELERSHSQLQQTQTELERSHSQLHQTQTELERSQSQLQQTQTELERSQSQLQQIQMALTLPQSQLYQMQTELEHWKNLVDWMEGSRFWKLRALCLSLKKKIINFPIIKLDFGSLPVFRKNNYPIFVKRTGKLIKNQIMSFRTQNDFADEILAGVLQSFAESPEYSQWIKDYEAKNDELKEQRINAASFPYQPVLSIILPVYKLPLTVLQETINSVIQQTYSNWELCIAFADIDNYQTIDYLKTLSLQEKRIKLKVMAENKGISGNSNVSLNMASGEFVALLDHDDLLAPFAFYEVISELNKQPDLDFIYSDKDCISANSMVRSRLLLKPEWSPEILYSANYLTHLCIARRTLLEKIGGFRPETDGAQDWDLFLRITENTSRIARINSVLYHWRIIQGSTSLGIDSKPYALEGQLRSIQDHLTRTKLPATVSPHPESGFRLEWQASSAEVSIYIDGDVSWDSLSACIHAVSEFADPKLHKATIVLAEHTYTSKATERENLITAVNLPIDWLPIKEGDSKLATLANTIKQDKTDVVVFVSGLVKKFTEGWIQELSGWVLNHPDIGFVSSLVLTDNNLVVEAGLVVDQYNNGSPLMRGNFLYSWDIFGGALWYRNCSASSPWSIAFSYKNYLEGGGLPSNSPSLSHSMIKLCQAIRVNNKRGLVNPHARAFLQDLPKNDIPEFDDSLGNDPYFHPAFSSVVPLKLRVKNGKKN”: the protein production result is “failed”.

“SDPEISEQDEEKKKYTSVCVGREEDIRKSERMTAVVHDREVVIFYHKGEYHAMDIRCYHSGGPLHLGEIEDFNGQSCIVCPWHKYKITLATGEGLYQSINPKDPSAKPKWCSKGVKQRIHTVKVDNGNIYVTLSKEPFKCDSDYYATGEFKVIQSSS”: the protein production entry is on record as “failed”.

As for “MEVKVQSDDLEYVVSTVRSYINSYETDVNPLYIRFYFFESDNPLLDENFDEIRKILVPSGYIPAVIKGPENYIEVTRRPKENYRSIYVNIIMLVLTLLSTVYVGSIYAASFVRPGPYYEFYKLLYGFVFFSLPLMFILGIHETAHYLVARRYRVNASLPFFIPFPYIIGTFGAFVSLRDPIPDRKAMTEIGAAGPIAGFLASIPLMFLAQYFEKVIKPVNNVIPFQLNYPLIYKLFGIFEPVKVPVFPMVFAVWVGIFATAMNLIPAGQLDGGHIVRGLLGSRAYILNYIFLGFLFYLAIVYNYLGWLFLALFVIFLGLVHPPALNDYARIKMRDVFIGIFCLLMFIITFTPLPIKP”, the protein production entry is on record as “failed”.

As to “MKLTDRLLKIASLVSDGKKIADIGTDHGYIPVYLLKEGKVPFAVLADVNKGPLDNAHKEVIQNNLLDKVDLRLGSGIEILEIGEVEEVIIAGMGGILISELLEAKKEVAHNVEKLILQPMQAQEELRYYLLNNGYEILEEVLVREDFRIYEIIVAKYTGKNTIIEDEIYYEVGIKLLENKDSLFNDFIEKKIKTYSSIVNKLEGKNGEAIDKKRKESEVAIKKLENLIK”, the protein production result is recorded as “not failed”.

Regarding “MGRMSEKLGQDIKQSIFKVPPLIQKSDIDPEHCRVSAQLDDNVDDNIPLRVMLLLMDEVFDLKDRNQWLRRNIKNLLQQLIKATYGDTINRKIVDHVDNMTSPEQVSDYVKRFRDSYWPNGILAETPPRRDKNLRMRTRVAAKTTLLGIMPDELKHIIGADTTRKGILRVFEMFQHQPLNRRLVYVFLEGFLETLFPQYKFPELFEKLHSRSPRVLKYSHKLRSLQKR”, the protein production entry is listed as “failed”.

Turning to “TRMAPVIMVPGSSASQNRFDSLITELGKETPKKHSVLKLTVQTDGTIKYSGSIAANDNEPFIVIGFANNRDGKANIDKQAVWLNTAFKALVKTYHFNHFYALGHSNGGLIWTLFLERYLKESPKVHIDRLMTIASPYNMESTSTTAKTSMFKELYRYRTGLPESLTVYSIAGTENYTSDGTVPYNSVNYGKYIFQDQVKHFTEITVTGANTAHSDLPQNKQIVSLIRQYLLAETMPDKVRQKNAQRVQN”, the protein production entry is reported as “not failed”.

“MTTVRTRIAPSPTGDPHVGTAYIALFNLCFARQHGGQFILRIEDTDQLRSTRESEQQIYDALRWLGIEWDEGPDVGGPHGPYRQSERGHIYKKYSDELVEKGHAFTCFCTPERLDAVRAEQMARKETPRYDGHCMHLPKDEVQRRLAAGESHVTRMKVPTEGVCVVPDMLRGDVEIPWDRMDMQVLMKADGLPTYFLANVVDDHLMGITHVLRGEEWLPSAPKLIKLYEYFGWEQPQLCYMPLLRNPDKSKLSKRKNPTSITFYERMGYLPQALLNYLGRMGWSMPDEREKFTLAEMIEHFDLSRVSLGGPIFDLEKLSWLNGQWIREQSVEEFAREVQKWALNPEYLMKIAPHVQGRVENFSQIAPLAGFFFSGGVPLDASLFEHKKLDPTQVRQVLQLVLWKLESLRQWEKERITGCIQAVAEHLQLKLRDVMPLMFPAITGHASSVSVLDAMEILGADLSRYRLRQALELLGGASKKETKEWEKIRDAIPG”: the protein production result is “failed”.

With “MVARDTTAPQVKIVNPVTGNVSGSNVPISVNASDDSGASGITYALYIDGVLKATGKGSTLGYNWNIRNVAAGAHTVQVVAKDAAGNSASSSLEHHHHHH”, the protein production entry is “not failed”.

Regarding “MSAEKSSADTAKKTLTIYSTMSTDSERDTFRKLAAAFEKEHSDIHVSLHFPGNDYENMMRVRMAANDLPDLFDTHGWGKIRYGEYTADLRDMKWTQDLDPNLNSILKNKSGKVYAYPINQAKDGLAYNRNILDRYGIAPPETMDDFIKALRTIKEKSKGSIVPFWFAGYDKSSFAQYYDQFATPLLITDPAHNEKKQLINGTFQWSKFTYLSEILKQMQKEKLINIDAVTAKKSQLIELMAQNKIAFTMQGGTLGQDVAQINPNVKVGIIPTPAIHPGDDPIWIGGERYTLAAWKDSPQLKEAKDFIAFMARPANAKQMAEATSLPSGLTNVKADIFYANDYEYYQDVKVEPYFDRLYLPNGMWDVLGTVGQELAADILAPQDISQKLGREYKRLREQSETQGAENNELEHHHHHH”, the protein production result is reported as “not failed”.

Take “MISANDLSPAELAALLHFHADAGVEWLLEEEAIDRFAEFEAMKAARRPAAQAQQQRPAAGERPAPGQAQVRPNAAVRPAPAERAASGPQPAIPDGEAVQQARFVAETARSLVELKTAIESFNGCNLKHSARSTIFASGDAESGIMVIGSAPSAEDDREGMPFSGKSGQLFDKMLAAIGLTRSAILLTQVIPWRPPGNRAPSAAEMDICRPFIERQIALAEPKAILLLGNFSARFFFGENDTIHGLRGRWKEIAAADCVIPAIASLHPQDLLTAPVNKRLAWNDLLAFQAKLKSLSLLRN”: the protein production entry was “failed”.
